Assay results: patent US20260226133A1 (ANGELES THERAPEUTICS, published 2026)
Residue numbers refer to the chain shown, from its start. Names and notes keep the numbering of the source.

Experiments:
TAJ/TNFRSF19 = target: T1, TAJ/TNFRSF19 (UniProt Q9NS68 30-423, limits assumed); assay: Malibu-Glo assay; NLuc fusion supernatant on LNCaP cells, control 293FT cells
T1 construct: whole, on cells
T1 sequence (looked up): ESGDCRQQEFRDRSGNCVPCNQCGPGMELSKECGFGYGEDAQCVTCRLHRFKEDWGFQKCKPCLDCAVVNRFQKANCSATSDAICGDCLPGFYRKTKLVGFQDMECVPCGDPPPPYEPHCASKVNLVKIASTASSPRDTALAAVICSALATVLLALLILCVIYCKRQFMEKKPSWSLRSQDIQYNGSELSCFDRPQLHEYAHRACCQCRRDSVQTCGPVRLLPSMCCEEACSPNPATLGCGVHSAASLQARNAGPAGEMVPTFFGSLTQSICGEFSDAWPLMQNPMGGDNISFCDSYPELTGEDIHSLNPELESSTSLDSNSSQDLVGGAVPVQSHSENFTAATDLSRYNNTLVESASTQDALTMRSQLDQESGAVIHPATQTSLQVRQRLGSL

MSLN = target: T2, MSLN (UniProt Q13421 37-598, limits assumed); assay: Malibu-Glo assay; NLuc fusion supernatant on SKOV3 cells, control Jurkat cells
T2 construct: whole, on cells; also called Mesothelin

CD33 = target: T3, CD33 (UniProt P20138 18-364, limits assumed); assay: Malibu-Glo assay; NLuc fusion supernatant on HL60 cells, control Jurkat cells
T3 construct: whole, on cells

DLL3 = target: T4, DLL3 (UniProt Q9NYJ7 27-618, limits assumed); assay: Malibu-Glo assay; NLuc fusion supernatant on NCI-H82 cells, control K562 cells
T4 construct: whole, on cells
T4 sequence (looked up): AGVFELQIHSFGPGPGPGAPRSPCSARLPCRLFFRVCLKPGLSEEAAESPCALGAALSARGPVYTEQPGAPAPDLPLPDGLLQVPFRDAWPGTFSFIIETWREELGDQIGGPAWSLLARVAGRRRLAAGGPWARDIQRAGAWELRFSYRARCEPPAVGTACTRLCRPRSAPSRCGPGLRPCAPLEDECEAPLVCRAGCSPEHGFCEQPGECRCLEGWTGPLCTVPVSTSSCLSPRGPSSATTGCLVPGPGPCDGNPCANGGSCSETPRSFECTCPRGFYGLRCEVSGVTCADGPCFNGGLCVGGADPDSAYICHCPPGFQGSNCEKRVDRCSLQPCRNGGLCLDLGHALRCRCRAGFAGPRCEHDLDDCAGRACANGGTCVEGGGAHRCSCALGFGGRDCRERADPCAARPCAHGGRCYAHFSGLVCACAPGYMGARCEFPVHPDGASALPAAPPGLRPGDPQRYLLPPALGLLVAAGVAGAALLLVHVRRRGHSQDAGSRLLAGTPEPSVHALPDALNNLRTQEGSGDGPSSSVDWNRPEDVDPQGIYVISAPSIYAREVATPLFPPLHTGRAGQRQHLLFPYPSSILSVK

CD20 = target: T5, CD20 (UniProt P11836 1-297, limits assumed); assay: Malibu-Glo assay; NLuc fusion supernatant on RAJI cells, control K562 cells
T5 construct: whole, on cells
T5 sequence (looked up): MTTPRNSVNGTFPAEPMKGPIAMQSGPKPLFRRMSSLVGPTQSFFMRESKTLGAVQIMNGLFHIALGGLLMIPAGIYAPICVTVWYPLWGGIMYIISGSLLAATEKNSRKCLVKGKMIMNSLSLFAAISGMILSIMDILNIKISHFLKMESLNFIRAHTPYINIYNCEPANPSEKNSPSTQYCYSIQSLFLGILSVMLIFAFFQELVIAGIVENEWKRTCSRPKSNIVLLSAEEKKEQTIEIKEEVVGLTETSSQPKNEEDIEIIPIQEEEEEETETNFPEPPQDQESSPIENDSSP

IL23R = target: T6, IL23R (UniProt Q5VWK5 24-629, limits assumed); assay: Malibu-Glo assay; NLuc fusion supernatant on L363 cells, control K562 cells
T6 construct: whole, on cells
T6 sequence (looked up): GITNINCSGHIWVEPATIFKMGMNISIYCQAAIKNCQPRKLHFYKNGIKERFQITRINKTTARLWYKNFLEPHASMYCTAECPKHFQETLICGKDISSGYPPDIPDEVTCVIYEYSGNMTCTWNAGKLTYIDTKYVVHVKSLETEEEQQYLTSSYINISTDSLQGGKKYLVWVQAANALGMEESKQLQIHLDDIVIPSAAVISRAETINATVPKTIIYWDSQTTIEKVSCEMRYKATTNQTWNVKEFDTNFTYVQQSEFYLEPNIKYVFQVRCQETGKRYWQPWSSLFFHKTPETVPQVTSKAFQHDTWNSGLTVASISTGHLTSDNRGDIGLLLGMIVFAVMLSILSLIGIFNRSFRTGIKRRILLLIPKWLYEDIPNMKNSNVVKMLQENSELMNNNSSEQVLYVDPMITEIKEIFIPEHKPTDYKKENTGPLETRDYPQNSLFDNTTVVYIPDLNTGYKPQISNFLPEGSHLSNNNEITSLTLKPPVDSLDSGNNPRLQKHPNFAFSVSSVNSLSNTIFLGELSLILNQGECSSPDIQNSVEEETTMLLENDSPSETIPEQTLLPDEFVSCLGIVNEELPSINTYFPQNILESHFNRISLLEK

BCMA [1] = target: T7, BCMA (UniProt Q02223 1-184, limits assumed); assay: Malibu-Glo assay; NLuc fusion supernatant on L363 cells, control Jurkat cells
T7 construct: whole, on cells; also called TNF receptor family member B cell maturation (BCMA)
T7 sequence (looked up): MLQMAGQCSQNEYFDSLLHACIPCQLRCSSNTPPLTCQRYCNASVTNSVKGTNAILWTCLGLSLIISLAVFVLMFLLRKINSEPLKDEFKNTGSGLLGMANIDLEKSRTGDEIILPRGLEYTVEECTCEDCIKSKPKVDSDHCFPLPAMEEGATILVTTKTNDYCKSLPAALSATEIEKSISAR

BCMA [2] = target: T7, BCMA; assay: Malibu-Glo assay; NLuc fusion supernatant on H929 cells, control K562 cells
CD19 = target: T8, CD19 (UniProt P15391 20-556, limits assumed); assay: Malibu-Glo assay; NLuc fusion supernatant on RAJI cells, control Jurkat cells
T8 construct: whole, on cells
T8 sequence (looked up): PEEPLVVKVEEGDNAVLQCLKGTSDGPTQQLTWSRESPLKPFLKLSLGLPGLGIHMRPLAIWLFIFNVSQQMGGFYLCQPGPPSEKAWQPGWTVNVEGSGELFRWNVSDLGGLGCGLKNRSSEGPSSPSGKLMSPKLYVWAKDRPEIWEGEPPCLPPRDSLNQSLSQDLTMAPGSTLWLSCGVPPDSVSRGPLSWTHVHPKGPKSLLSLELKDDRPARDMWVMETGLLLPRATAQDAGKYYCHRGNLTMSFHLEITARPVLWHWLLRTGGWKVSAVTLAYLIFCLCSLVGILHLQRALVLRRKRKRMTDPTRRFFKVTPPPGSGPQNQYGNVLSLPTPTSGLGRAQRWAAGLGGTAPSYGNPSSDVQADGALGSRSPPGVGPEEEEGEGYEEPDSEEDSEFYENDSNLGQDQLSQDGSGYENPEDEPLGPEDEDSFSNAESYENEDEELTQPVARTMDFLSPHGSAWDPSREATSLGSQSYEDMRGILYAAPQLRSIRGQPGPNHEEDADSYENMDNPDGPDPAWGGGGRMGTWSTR

STEAP2 = target: T9, STEAP2 (UniProt Q8NFT2 1-490, limits assumed); assay: Malibu-Glo assay; NLuc fusion supernatant on LNCaP cells, control K562 cells
T9 construct: whole, on cells
T9 sequence (looked up): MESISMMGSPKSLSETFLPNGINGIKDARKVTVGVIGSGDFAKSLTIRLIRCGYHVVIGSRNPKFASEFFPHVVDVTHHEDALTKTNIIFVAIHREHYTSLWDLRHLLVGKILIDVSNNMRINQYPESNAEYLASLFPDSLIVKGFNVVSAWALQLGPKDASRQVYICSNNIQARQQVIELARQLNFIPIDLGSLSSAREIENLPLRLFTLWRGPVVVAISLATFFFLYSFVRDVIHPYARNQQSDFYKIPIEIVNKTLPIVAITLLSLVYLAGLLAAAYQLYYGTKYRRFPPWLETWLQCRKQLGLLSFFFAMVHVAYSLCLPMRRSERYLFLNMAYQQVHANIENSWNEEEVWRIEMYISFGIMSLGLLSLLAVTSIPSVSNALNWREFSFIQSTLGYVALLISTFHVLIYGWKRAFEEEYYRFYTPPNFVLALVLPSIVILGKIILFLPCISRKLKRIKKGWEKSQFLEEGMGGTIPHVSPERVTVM

T2 sequence (Q13421 other isoform, or with tags, fused parts or gaps limits assumed): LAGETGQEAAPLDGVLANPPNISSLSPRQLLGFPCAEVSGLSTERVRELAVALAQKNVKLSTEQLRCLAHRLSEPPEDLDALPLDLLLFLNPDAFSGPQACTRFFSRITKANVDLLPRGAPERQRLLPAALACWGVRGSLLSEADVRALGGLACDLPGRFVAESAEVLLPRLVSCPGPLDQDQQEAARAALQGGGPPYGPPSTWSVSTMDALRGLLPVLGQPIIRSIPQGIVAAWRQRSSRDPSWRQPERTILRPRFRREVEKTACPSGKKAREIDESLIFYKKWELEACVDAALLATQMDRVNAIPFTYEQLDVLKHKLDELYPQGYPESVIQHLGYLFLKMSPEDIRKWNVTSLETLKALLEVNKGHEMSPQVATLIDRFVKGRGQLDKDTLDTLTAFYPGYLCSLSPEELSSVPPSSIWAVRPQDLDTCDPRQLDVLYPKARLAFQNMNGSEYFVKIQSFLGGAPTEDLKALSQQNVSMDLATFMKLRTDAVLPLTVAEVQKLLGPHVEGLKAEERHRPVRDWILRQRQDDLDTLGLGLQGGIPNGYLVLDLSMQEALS
T3 sequence (P20138 18-364 limits assumed): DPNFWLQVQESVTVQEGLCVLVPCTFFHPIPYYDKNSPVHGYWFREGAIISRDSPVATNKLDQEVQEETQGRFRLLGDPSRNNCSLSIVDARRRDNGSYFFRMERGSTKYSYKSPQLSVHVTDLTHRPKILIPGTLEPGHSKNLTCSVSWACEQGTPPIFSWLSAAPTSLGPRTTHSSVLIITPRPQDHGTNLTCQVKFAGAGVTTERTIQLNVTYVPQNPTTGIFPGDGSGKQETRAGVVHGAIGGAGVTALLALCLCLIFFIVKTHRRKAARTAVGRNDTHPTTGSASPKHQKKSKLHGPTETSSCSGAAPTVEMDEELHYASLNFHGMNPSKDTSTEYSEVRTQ

B1: KN5-USC1-R3D scFv (TAJ), NLuc fusion (scFv)
chain: QIVLTQSPAIMSASPGEKVTMTCSASSSVSFMHWYQQKSGTSPKRWIYDTSTLASGVPARFGGSGSGTSYSLTISSMEAEDAATYYCQQWSSNPLTFGAGTKLELKRGGGGSGGGGSGGGGSQVQLQQSGPELVKPGASVRISCKASGYTFTSYYIHWVKQRPGQGLEWIGWIYPGNLNTKYNEKFKGKATLTADKSSSTAYMQLSSLTSEDSAVYFCARYDWYFDVWGAGTTVTVSS
TAJ/TNFRSF19
  Fold Change (Luc activity, target cell line over control cell line): 4.35 fold

B2: AT2-K65R vHH (MSLN), NLuc fusion (VHH)
VHH: QVQLVESGGGVVQPGGSLRLSCAASGLSFSTYTVAWFRQAPGKGLEGVAAIPYTSQHMVYTDSVRGRFTISRDNSKNTLYLQMNSLRAEDTAVYYCATDRRPGTSMLAINGYNRWGQGTTVTVSS
MSLN
  Fold Change (Luc activity, target cell line over control cell line): 11.5 fold

B3: AT264-S30G vHH (CD33), NLuc fusion (VHH)
VHH: EVQLVESGGGSVQAGGSLRLSCAASGYTYGINCMGWFRQAPGKEREGVAVISTGGGRTDYRDSVKGRFTISQDNAKNTVYLQMNSLKPEDTAMYYCAGKTTYPGYGCGLGRSAYNYWGQGTQVTVSS
CD33
  Fold Change (Luc activity, target cell line over control cell line): 28 fold

B4: DLL3-USC5 vHH (DLL3), NLuc fusion (VHH)
VHH: QVQLVESGGGVVQPGGSLRLSCAASFSGYGVSTMAWFRQAPGKGLEGVAAITVGSGNTYYADSVKGRFTISRDNSKNTVYLQMNSLRAEDTAMYYCAVGWLSGGSWHVPGRYNYWGQGTLVTVSS
DLL3
  Fold Change (Luc activity, target cell line over control cell line): 1.7 fold

B5: huCD20-AT1 vHH (CD20), NLuc fusion (VHH)
VHH: EVQLLESGGGLVQPGGSLRLSCAASGRTFSMGWYRQAPGKGLEFVSAITYSGGSPYYADSVKGRFTISRDNSKNTVYLQMNSLRAEDTAVYYCAANPTYGSDWNAENWGQGTLVTVSS
CD20
  Fold Change (Luc activity, target cell line over control cell line): 15.6 fold

B6: IL23R-SANG-11 scFv (IL23R), NLuc fusion (scFv)
chain: DIQMTQSPSSLSASVGDRVTITCQASENIYSFLAWYQQKPGKAPKLLIYSASKLAAGVPSRFSGSGSGTDFTLTISSLQPEDFATYYCQQTNRYSNPDIYNVFGQGTKLTVLGGGGGSGGGGSGGGGSEVQLVESGGGLVQPGGSLRLSCAASGIDFNSNYYMCWVRQAPGKGLEWIGCIYVGSHVNTYYANWAKGRFTISRDNSKNTVYLQMNSLRAEDTAVYYCATSGSSVLYFKFWGQGTLVTVSS
IL23R
  Fold Change (Luc activity, target cell line over control cell line): 2.37 fold

B7: hu-E59D-US3 vHH (BCMA), NLuc fusion (VHH)
VHH: EVQLVESGGGLVQPGGSLRLSCAASGRTFTMGWFRQAPGKGREFVAAISLSPTLAYYADSVKGRFTISRDNSKNTVVLQMNSLRAEDTAVYYCAADRKSVMSIRPDYWGQGTQVTVSS
BCMA [1]
  Fold Change (Luc activity, target cell line over control cell line): 2 fold

B8: huE59D-AT2 vHH (BCMA), NLuc fusion (VHH)
VHH: B7 VHH with F34Y, G41E, V90L, Q113L
BCMA [2]
  Fold Change (Luc activity, target cell line over control cell line): 2.99 fold

B9: E59D-USC1 vHH (BCMA), NLuc fusion (VHH)
VHH: B7 VHH with E1Q, F34Y, R42L, A46S, V90L, Q113L
BCMA [2]
  Fold Change (Luc activity, target cell line over control cell line): 2.57 fold

B10: hu-mROO5-1 scFv (CD19), NLuc fusion (scFv)
chain: DIQMTQSPSSLSASVGDRVTITCKASDHINNWLAWYQQKPGQAPKLLIYGATTLETGVPSRFSGSGSGTDYTLTISSLQPEDFATYYCQQSWNTPWTFGQGTKLEIKRGGGGSGGGGSGGGGSQVQLQQPGAELVKPGASVKMSCKASGYAFSSYWINWMKQKPGQGLEWIGQIYPGDGDTNYNGKFKGRATLTADTSSSTAYMQLSSLTSEDSAVYFCARSITTVVGCAMDYWGQGTSVTVSS
CD19
  Fold Change (Luc activity, target cell line over control cell line): 933 fold

B11: STEAP2-RGN-1162-USC1 scFv (STEAP2), NLuc fusion (scFv)
chain: QVQLQQSGPGLVKPSQTLSLTCAISGDSVSSNRAAWNWIRQSPSRGLQWLGRTYYRSKWYNDYAVSLRSRITINPVTSKNQVALHMNSVTPEDTAVYYCARAGIVVVPGPETFYYYDHGLDVWGQGTTVTVSSGGGGSGGGGSGGGGSDIQMTQSPSSLSASVGDRVTITCRASQSIRNYLNWYQQKPGKAPELLIHAASSLQSGVPSRFSGSGSGTDFTLTISSLQPEDFASYYCQQSYSAPPITFGQGTRLEIK
STEAP2
  Fold Change (Luc activity, target cell line over control cell line): 27.4 fold
